This note sets out measurements from publication PMC7896056.

The target of test [1] is SIRT1 (183–510+GS+641–665) (human) (UniProt Q96EB6). Put plainly: ITC; Ac-p53 peptide (500 μM) titrated into 10 μM SIRT1 (183–510+GS+641–665) in the presence of 0.2 mM KPMF-8; 25 °C; 20 mM HEPES pH 7.4, 150 mM NaCl, 0.5% ethanol; one-site model.
For test [2] the target is unchanged. Description: ITC; Ac-p53 peptide (500 μM) titrated into 10 μM SIRT1 (183–510+GS+641–665), no activator; 25 °C; 20 mM HEPES pH 7.4, 150 mM NaCl, 0.5% ethanol; one-site model.
Test [3] has the same target. Description: ITC; Ac-p53 peptide (500 μM) titrated into 10 μM SIRT1 (183–510+GS+641–665) in the presence of 0.2 mM resveratrol; 25 °C; 20 mM HEPES pH 7.4, 150 mM NaCl, 0.5% ethanol; one-site model.

Sequence of UniProt Q96EB6 (Q96EB6 other isoform, or with tags, fused parts or gaps): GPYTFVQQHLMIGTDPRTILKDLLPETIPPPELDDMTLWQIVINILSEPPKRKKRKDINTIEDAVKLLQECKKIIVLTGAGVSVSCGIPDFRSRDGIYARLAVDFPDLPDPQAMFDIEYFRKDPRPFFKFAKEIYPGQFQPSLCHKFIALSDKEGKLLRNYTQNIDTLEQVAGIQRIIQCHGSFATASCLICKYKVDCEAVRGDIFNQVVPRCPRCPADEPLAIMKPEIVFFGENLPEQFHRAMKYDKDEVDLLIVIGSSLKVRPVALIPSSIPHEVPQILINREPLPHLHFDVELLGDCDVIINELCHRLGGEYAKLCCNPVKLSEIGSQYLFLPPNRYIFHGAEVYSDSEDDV

Consider native Ac-p53 peptide, for which the Kd came out at 6.67 µM in test [1], 55 µM in test [2] and 38.8 µM in test [3].
